Test results: patent US20250270301A1 (GEN2 NEUROSCIENCE, published 2025)

What was measured:
[1] = molecular target: T1, full length recombinant human 2N4R tau (human, UniProt P10636 1-758); assay: SPR SCK, IgG on Protein A, tau in flow
T1 construct: bought from rPeptide; pHrodo Red maleimide-labelled where it stands in uptake assays; also called tau1-441; full length tau
Description: 21.5 Assessment of antibody binding to tau (Biacore SCK analysis): Binding of anti-tau hIgG1 to full length recombinant 2N4R tau (Rpeptide; SEQ ID NO: 2) was assessed using the Biacore T200 (GE Healthcare, Chicago, IL, USA) running Biacore T200 Evaluation Software V2.0.1. hIgG1 were immobilised on a Protein A capture sensor chip in running buffer (HBS-EP+ buffer containing 1 mg/mL BSA) at 25° C., captured to ˜50 RU at 10 μL/min. For single-cycle kinetics experiments, recombinant 2N4R tau was flowed at concentrations ranging from 1.25 nM to 10 nM (2-fold dilutions) with an association time of 60 s and a dissociation time of 200 s. Curves were compared to a reference cell that was mock immobilized (no antibody present).

Bovine serum albumin = molecular target: T2, Bovine serum albumin (bovine, UniProt P02769 25-607); assay: ELISA on 1% BSA, HEK supernatant, anti-human IgG-HRP, n=1
T2 construct: also called BSA
Description: FIG. 7. A panel of humanised anti-tau IgG bind to full length recombinant 2N4R tau in an ELISA format. Supernatants from HEK cells transiently transfected with each IgG clone were tested at 1:100 for binding to full length recombinant 2N4R tau (solid bars). […] Binding of anti-tau hIgG1 was detected using an HRP-conjugated anti-human secondary antibody and data are shown from a representative experiment (n=1 replicate).
Antigen was removed from wells and the plates were then blocked for 1 hour at RT with 5% dried milk in 1×TBS. Blocking solution was removed, HEK293 cell supernatant (1:100 in 1% BSA/1×TBS) was added to relevant wells, and plates were incubated for 1 hour at RT with gentle shaking. Plates were then washed four times with TBS/0.1% Tween (TBST). Goat anti-human IgG-HRP antibody (Thermo Fisher Scientific, Waltham, MA, USA), diluted 1:2000 in 5% milk/TBS, was added to each well and plates were incubated for 1 hour at RT with gentle shaking before being washed four times with TBST. 3,3′,5,5′-tetramethylbenzidine (TMB) ELISA solution was added to each well and plates were incubated for 15 mins at RT. An equal volume of 1 M sulfuric acid was added to each well and OD was measured at 450 nm.

T1 sequence (P10636 other isoform, or with tags, fused parts or gaps limits assumed): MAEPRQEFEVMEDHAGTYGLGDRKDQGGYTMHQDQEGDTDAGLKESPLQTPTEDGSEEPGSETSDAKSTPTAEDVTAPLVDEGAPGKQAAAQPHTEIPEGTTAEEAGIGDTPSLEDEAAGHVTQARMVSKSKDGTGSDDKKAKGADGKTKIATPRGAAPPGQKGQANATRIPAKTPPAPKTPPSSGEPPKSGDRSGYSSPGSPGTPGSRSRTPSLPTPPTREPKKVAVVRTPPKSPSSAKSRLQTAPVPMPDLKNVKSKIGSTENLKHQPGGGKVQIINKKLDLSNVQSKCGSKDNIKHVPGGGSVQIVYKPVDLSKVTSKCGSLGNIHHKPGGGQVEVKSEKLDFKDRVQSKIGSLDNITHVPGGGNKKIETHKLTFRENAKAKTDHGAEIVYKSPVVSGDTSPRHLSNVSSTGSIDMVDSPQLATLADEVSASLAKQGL
T2 sequence (P02769 25-607 limits assumed): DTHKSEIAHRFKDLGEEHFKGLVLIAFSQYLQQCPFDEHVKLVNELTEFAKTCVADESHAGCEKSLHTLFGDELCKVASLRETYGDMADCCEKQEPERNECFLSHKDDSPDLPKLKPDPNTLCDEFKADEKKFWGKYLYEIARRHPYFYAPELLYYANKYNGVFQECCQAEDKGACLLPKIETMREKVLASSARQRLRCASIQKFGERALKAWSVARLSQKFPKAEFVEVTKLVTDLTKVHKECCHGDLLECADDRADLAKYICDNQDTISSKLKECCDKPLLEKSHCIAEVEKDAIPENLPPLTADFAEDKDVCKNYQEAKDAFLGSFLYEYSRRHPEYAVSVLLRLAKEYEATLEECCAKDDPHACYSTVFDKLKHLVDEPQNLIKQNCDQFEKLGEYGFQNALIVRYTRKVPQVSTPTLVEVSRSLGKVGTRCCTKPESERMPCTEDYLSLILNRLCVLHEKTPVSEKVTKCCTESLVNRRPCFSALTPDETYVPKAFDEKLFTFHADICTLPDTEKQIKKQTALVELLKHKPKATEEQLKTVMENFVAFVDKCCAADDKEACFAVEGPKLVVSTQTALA

Binder	Kd [1] [nM]	Relative KD (to VH0VK0) [1]	koff [1] [s⁻¹]	kon [1] [M⁻¹ s⁻¹]	binding result (Bovine serum albumin)
#44 VH5VK1 humanised hIgG1 (antibody, V domains shown, also called VH5Vκ1) VH: QVQLQESGPGLVKPSETLSLTCTVSGIDLSSYAMAWVRQAPGKGLEWIGCIDRRGGTFYASWVKGRFTISRDNSKNTLDLQMTSLTAEDTATYYCARDSGAFDPWGQGTLVTVSS VL: QIVMTQSPSSLSASVGDRVTITCQASQSVYDNYLAWYQQKPGQPPKLLIHAASNLASRVPSRFKGSGSGTEFTLTISSLQCDDFATYYCLGEFSCTTTDCNVFGGGTEVVIK	8.31	2.17	0.187	2.25e+07	no binding (tested: supernatant 1:100)
#44 VH5VK2 humanised hIgG1 (antibody, V domains shown, also called VH5Vκ2) VH: QVQLQESGPGLVKPSETLSLTCTVSGIDLSSYAMAWVRQAPGKGLEWIGCIDRRGGTFYASWVKGRFTISRDNSKNTLDLQMTSLTAEDTATYYCARDSGAFDPWGQGTLVTVSS VL: QIVMTQSPSSLSASVGDRVTITCQASQSVYDNYLAWYQQKPGQPPKLLIHAASNLASGVPSRFKGSGSGTEFTLTISSLQPDDFATYYCLGEFSCTTTDCNVFGGGTKVEIK	12.6	3.29			no binding (tested: supernatant 1:100)
#44 VH5VK3 humanised hIgG1 (antibody, V domains shown, also called VH5Vκ3) VH: QVQLQESGPGLVKPSETLSLTCTVSGIDLSSYAMAWVRQAPGKGLEWIGCIDRRGGTFYASWVKGRFTISRDNSKNTLDLQMTSLTAEDTATYYCARDSGAFDPWGQGTLVTVSS VL: DIQMTQSPSSLSASVGDRVTITCQASQSVYDNYLAWYQQKPGQPPKLLIHAASNLASGVPSRFKGSGSGTEFTLTISSLQPDDFATYYCLGEFSCTTTDCNVFGGGTKVEIK	14.2	3.71	0.0406	2.86e+06	no binding (tested: supernatant 1:100)
#44 VH5VK4 humanised hIgG1 (antibody, V domains shown, also called VH5Vκ4) VH: QVQLQESGPGLVKPSETLSLTCTVSGIDLSSYAMAWVRQAPGKGLEWIGCIDRRGGTFYASWVKGRFTISRDNSKNTLDLQMTSLTAEDTATYYCARDSGAFDPWGQGTLVTVSS VL: DIQMTQSPSSLSASVGDRVTITCQASQSVYDNYLAWYQQKPGQPPKLLIHAASNLASGVPSRFSGSGSGTEFTLTISSLQPDDFATYYCLGEFSCTTTDCNVFGGGTKVEIK	9.63	2.51	0.0684	7.11e+06	no binding (tested: supernatant 1:100)
#44 VH1VK2 humanised hIgG1 (antibody, V domains shown, also called VH1Vκ2) VH: QSVQESGGGLVKPSETLSLTCTVSGIDLSSYAMAWVRQAPGKGLEWIGCIDRRGGTFYASWVKGRFTISKTSTTVDLKMTSLTAEDTATYFCARDSGAFDPWGQGTLVTVSS VL: QIVMTQSPSSLSASVGDRVTITCQASQSVYDNYLAWYQQKPGQPPKLLIHAASNLASGVPSRFKGSGSGTEFTLTISSLQPDDFATYYCLGEFSCTTTDCNVFGGGTKVEIK	4.26	1.11	0.0232	5.43e+06	no binding (tested: supernatant 1:100)
#44 VH1VK1 humanised hIgG1 (antibody, V domains shown, also called VH1Vκ1) VH: QSVQESGGGLVKPSETLSLTCTVSGIDLSSYAMAWVRQAPGKGLEWIGCIDRRGGTFYASWVKGRFTISKTSTTVDLKMTSLTAEDTATYFCARDSGAFDPWGQGTLVTVSS VL: QIVMTQSPSSLSASVGDRVTITCQASQSVYDNYLAWYQQKPGQPPKLLIHAASNLASRVPSRFKGSGSGTEFTLTISSLQCDDFATYYCLGEFSCTTTDCNVFGGGTEVVIK	3.16	0.83	0.0232	7.35e+06	no binding (tested: supernatant 1:100)
#44 VH1VK3 humanised hIgG1 (antibody, V domains shown, also called VH1Vκ3) VH: QSVQESGGGLVKPSETLSLTCTVSGIDLSSYAMAWVRQAPGKGLEWIGCIDRRGGTFYASWVKGRFTISKTSTTVDLKMTSLTAEDTATYFCARDSGAFDPWGQGTLVTVSS VL: DIQMTQSPSSLSASVGDRVTITCQASQSVYDNYLAWYQQKPGQPPKLLIHAASNLASGVPSRFKGSGSGTEFTLTISSLQPDDFATYYCLGEFSCTTTDCNVFGGGTKVEIK	5	1.31	0.0129	2.58e+06	no binding (tested: supernatant 1:100)
